For 2 proteins, Km results are on record in patent publication US4701455A, “Biopterin analogs” (Burroughs Wellcome Co., priority 1983, dated 1987).

Substrate in data set [1]: C[C@H](O)[C@H](O)[C@H]1CNc2nc(N)[nH]c(=O)c2N1
The data set is described as follows: purified protein, by the assay type. Particulars: other: rat liver enzyme; Km of substrate with the pterin as cofactor.

Substrate in data set [2]: C[C@H](O)[C@H](O)[C@H]1CNc2nc(N)[nH]c(=O)c2N1
The data set is described as follows: cells, lysate or membranes named. Particulars: other: Km of substrate with the pterin as cofactor.

A word on the Km: it is the substrate concentration at which the rate is half of its maximum.

B1: Phenylalanine hydroxylase (Rattus norvegicus) (protein)
chain: MAAVVLENGVLSRKLSDFGQETSYIEDNSNQNGAISLIFSLKEEVGALAKVLRLFEENDINLTHIESRPSRLNKDEYEFFTYLDKRTKPVLGSIIKSLRNDIGATVHELSRDKEKNTVPWFPRTIQELDRFANQILSYGAELDADHPGFKDPVYRARRKQFADIAYNYRHGQPIPRVEYTEEEKQTWGTVFRTLKALYKTHACYEHNHIFPLLEKYCGFREDNIPQLEDVSQFLQTCTGFRLRPVAGLLSSRDFLGGLAFRVFHCTQYIRHGSKPMYTPEPDICHELLGHVPLFSDRSFAQFSQEIGLASLGAPDEYIEKLATIYWFTVEFGLCKEGDSIKAYGAGLLSSFGELQYCLSDKPKLLPLELEKTACQEYSVTEFQPLYYVAESFSDAKEKVRTFAATIPRPFSVRYDPYTQRVEVLDNTQQLKILADSINSEVGILCNALQKIKS
With B1, in data set [1], the Km is 123 µM.

B2: Tryptophan hydroxylase (Rattus norvegicus) (protein)
chain: MQPAMMMFSSKYWARRGLSLDSAVPEEHQILGGLTQNKATASKSEDKRSGKDTSESSKTAVVFSLKNEVGGLVRALRLFQEKHVNMLHIESRRSRRRSSEVEIFVDCECGKTEFNELIQLLKFQTTIVTLNPPDNIWTEEEELEDVPWFPRKISELDRCSHRVLMYGTELDADHPGFKDNVYRQRRKYFVDVAMGYKYGQPIPRVEYTEEETKTWGVVFRELSKLYPTHACREYLKNFPLLTKYCGYREDNVPQLEDVSMFLKERSGFTVRPVAGYLSPRDFLAGLAYRVFHCTQYVRHGSDPLYTPEPDTCHELLGHVPLLADPKFAQFSQEIGLASLGASDEDVQKLATCYFFTIEFGLCKQEGQLRAYGAGLLSSIGELKHALSDKACVKAFDPKTTCLQECLITTFQDAYFVSESFEEAKEKMRDFAKSITRPFSVYFNPYTQSIEILKDTRSIENVVQDLRSDLNTVCDALNKMNQYLGI
Regarding B2, in data set [2], the Km was 15 µM.
